In the supplement of paper PMC12764529:
± gives the half width of the 95% confidence interval.

What was measured:
[1] = folding stability dG unfold from trypsin proteolysis; higher = more stable
How it was run: (§1)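 Designed mini-proteins with no cysteine and under 80 residues were kept only if AlphaFold2 dimer inter-PAE was above 15. In a PA-tagged cDNA display construct, they were digested with trypsin and chymotrypsin and then sequenced. K50 was inferred by Bayesian fitting of counts, and unfolding free energy was derived per protease or combined against a sequence-predicted unfolded-state K50 and a shared folded-state K50.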

[2] = folding stability dG unfold from chymotrypsin proteolysis; higher = more stable
How it was run: as §1

[3] = folding stability dG unfold (combined trypsin and chymotrypsin); higher = more stable
How it was run: as §1

Sequence	folding stability dG unfold [1]	folding stability dG unfold [2]	folding stability dG unfold [3]
SARRDGSKVFLELERVVPLDVPLETVLEEVRRLFPEDAEIRLEAVPRRDLLDGVPREYRVVRVIVVRDDSAG [r14_633_TrMRF]	1.06 ± 0.058 kcal/mol	2.16 ± 0.039 kcal/mol	1.79 ± 0.15 kcal/mol
SAGGSAGGSAGGSMIVLNVPREVAEKIKEELIKKGIDPEKVKVIYIEVPLPEEPPESILSAGGSAGGSAGGS [r10_602_JUSTAS]	0.798 ± 0.067 kcal/mol	0.351 ± 0.099 kcal/mol	0.548 ± 0.16 kcal/mol
SAGGSAGGSAGGSMEFEVAEVFPDGWVVLRFPDGSRYRARLALDPETGEAKLLSLEPLPSAGGSAGGSAGGS [r4_247_TrMRF]	3.27 ± 0.077 kcal/mol	4.41 ± 0.071 kcal/mol	4.15 ± 0.2 kcal/mol
SAGGKEKIILIPAKDKEKVLELLKALADEGKTVRIINLKTGKVEEVTVDELLALAEKTNEPILIEVESAGGS [r16_263_TrROS_Hall]	3.69 ± 0.18 kcal/mol	2.98 ± 0.11 kcal/mol	3.34 ± 0.21 kcal/mol
SAGPGHELKIDIERDPGNGIIKLSITYPNGIKYEMLIFRNPDNGKWFIFINIERDPGRIKIDIGIFPLSAGG [r19_394_TrROS]	3.28 ± 0.083 kcal/mol	5.05 ± 0.13 kcal/mol	4.7 ± 0.2 kcal/mol
SAGGSAGGSAGVEEIAKILQELGFEVEVEPVPDGMRTIEVQNKNGKKITIRITADGKIEISAGGSAGGSAGG [r17_503_TrROS]	1.9 ± 0.03 kcal/mol	2.2 ± 0.14 kcal/mol	2.09 ± 0.11 kcal/mol
SAGGMVKLTITITTENETTTYPRVVPEEELEEVKKEAEELAKKLGADPKTVTVSKVERLKEPGGVPVSAGGS [r16_650_JUSTAS]	0.694 ± 0.029 kcal/mol	0.901 ± 0.033 kcal/mol	0.856 ± 0.061 kcal/mol
SAGGMPLGITITETVTPTPDGSVVVTLTVSLPPDEPLTITFPISGETVSFPPDETITLKVTVPPGLSSAGGS [r16_56_JUSTAS]	1.7 ± 0.09 kcal/mol	0.953 ± 0.034 kcal/mol	1.4 ± 0.093 kcal/mol
SAGGSAGGSNYINVKIEIWDPPNGKEREITINIPVPPGDPDYLKEIVNELASNFPGYYVKVEISAGGSAGGS [r12_795_TrROS]	1.61 ± 0.11 kcal/mol	1.61 ± 0.058 kcal/mol	1.64 ± 0.23 kcal/mol
SAGGSAGGSKKVTIVLSKEELRELFENLTPEQIAELLKKKFPKIKRVEVKEVDGKLVIEVEVESAGGSAGGS [r12_590_TrROS_Hall]	3.15 ± 0.26 kcal/mol	3.59 ± 0.1 kcal/mol	3.43 ± 0.17 kcal/mol
SAGGMKIVSVEVVKDEETGVYVIKLTVEDPETNETYTLEVVIKNEDGELKTITVKAKSKEDALKELLKSAGG [r13_26_TrROS_Hall]	1.85 ± 0.067 kcal/mol	3.6 ± 0.14 kcal/mol	3.1 ± 0.23 kcal/mol
SAGGSAETKTVVIEVKLPEELKGLSAEELAALLAEELAKKPGVKEVTVTVERDEETDTLRVTITYPSAGGSA [r15_1029_TrROS_Hall]	3.21 ± 0.05 kcal/mol	2.94 ± 0.043 kcal/mol	3.12 ± 0.042 kcal/mol
SAGGSKKVPIKVKIEVYNKNGEKMTLEELLKKLEENAKVEKDEKGRLTLYIVNKKTNKIVKIEVEKSAGGSA [r2_234_TrROS_Hall]	1.74 ± 0.18 kcal/mol	1.92 ± 0.19 kcal/mol	1.72 ± 0.27 kcal/mol
SAGGSAGGSAGGHKIDIEWERYEDGMYRVTITIRSNNGPRKIPFWVPPGYETADDILKQISAGGSAGGSAGG [r7_75_TrROS]	1.8 ± 0.075 kcal/mol	1.71 ± 0.066 kcal/mol	1.88 ± 0.18 kcal/mol
SAGGKVVPILIEGELTAEEIKALIPPGELAVLYDLETGEVRVFSPEDLDKIPSDVPLRFLLLIFRPDSAGGS [r8_66_TrMRF]	2.93 ± 0.051 kcal/mol	4.31 ± 0.058 kcal/mol	3.92 ± 0.11 kcal/mol
SAGGSAGGSAGSTILIKNEDGSLLLVTVSDGSITIERLPPAPPPKTYEKDPETKEWREVTSAGGSAGGSAGG [r11_590_TrROS_Hall]	1.06 ± 0.021 kcal/mol	0.647 ± 0.063 kcal/mol	0.878 ± 0.057 kcal/mol
SAMKIKPVPDPVTGKTKYVIDFGDAEVVIYHFPNSYRIEVRKKPDNKTIVIEAKPNEIEEVLKELGLPASAG [r14_4_TrMRF]	1.4 ± 0.12 kcal/mol	1.85 ± 0.12 kcal/mol	1.86 ± 0.16 kcal/mol
SWYHIQFWLEGNSIEELMKWAKELAKQGNFEITKISNEHMHITIEIKLKPPPPPPPPPPKEEYDGDGKPKSA [r9_830_TrROS]	2.53 ± 0.56 kcal/mol	2.37 ± 0.19 kcal/mol	2.22 ± 0.46 kcal/mol
SAGGSAGGSAGLKVIEADTLEEVLEAIKEAPKDEPLLLILRNPSTGVDSVLLFDGDKIVLGGSAGGSAGGSA [r18_407_TrMRF]	1.09 ± 0.029 kcal/mol	0.595 ± 0.09 kcal/mol	0.909 ± 0.06 kcal/mol
SAGGSAGGSAEKKTITVVVKVDENGKEKTPEELAKELEKAGFKVTKVTWDEENNYVTVTIEASAGGSAGGSA [r18_466_TrROS_Hall]	1.72 ± 0.088 kcal/mol	1.11 ± 0.049 kcal/mol	1.4 ± 0.18 kcal/mol
SAGGSAGGSAGMLETIELPDGKRVRYDPVTGEWFVELDPELEEEVRERLDPDLPVRFEEVSAGGSAGGSAGG [r11_374_JUSTAS]	1.74 ± 0.081 kcal/mol	1.54 ± 0.063 kcal/mol	1.62 ± 0.057 kcal/mol

Sequence	folding stability dG unfold [1]	folding stability dG unfold [2]	folding stability dG unfold [3]
SAGGDEIVDRIKQAFHNFGYPVRIDDISPPNGKIYIRISPAMRENMKPAIIEIPFPGIKDITIEMWPSAGGS [r8_318_TrROS]	1.25 ± 0.14 kcal/mol	1.49 ± 0.14 kcal/mol	1.53 ± 0.17 kcal/mol
SKTVIIEVPAKDLDKIKELIKKLKPGQKVKIVFKDANGKLITVTIEVKPAPPPKISLEELSEEQRKALEKSA [r9_1103_TrROS_Hall]	1.53 ± 0.081 kcal/mol	1.89 ± 0.23 kcal/mol	1.79 ± 0.28 kcal/mol
SAGGSSVRISFPNGYTVEITVTEDSATITLRSPTSTETVEFPSSVQVTITGPLNQPVTFDIPSSSESAGGSA [r2_57_TrMRF]	2.77 ± 0.077 kcal/mol	2.811 ± 0.024 kcal/mol	2.8 ± 0.057 kcal/mol
SAGGSAGGSAGGSPSPLGKTRPALPASPVLKVPVTLPDDSLLTVYYDPLTGSLVVESYSSAGGSAGGSAGGS [r4_305_TrMRF]	0.326 ± 0.026 kcal/mol	0.414 ± 0.12 kcal/mol	0.467 ± 0.07 kcal/mol
SAGGSAGGSAKEILIVMTPEEAEELKKELLEKLKELAKKLKIKEIKIKVYLVKYDKNGKKVSAGGSAGGSAG [r3_89_TrROS_Hall]	1.9 ± 0.12 kcal/mol	2.66 ± 0.091 kcal/mol	2.26 ± 0.28 kcal/mol
SAKMTAEELAKKLAEELAKKLGVKVKVEVEVKVEEKDGKLVIEVKIKVYNENGELIEEIKIEIVLPKEESAG [r14_708_TrROS_Hall]	2.92 ± 0.35 kcal/mol	3.84 ± 0.26 kcal/mol	3.51 ± 0.28 kcal/mol
SAGGSAGGSAGGSPPMPMRIDEVEYDPPNGRYEITVEPDNGNPQTITMPPGNIDEAYIVSAGGSAGGSAGGS [r4_51_TrROS]	1.47 ± 0.12 kcal/mol	0.978 ± 0.042 kcal/mol	1.15 ± 0.16 kcal/mol
SAGGSAMEELKEKVLEAWKKLTPDTPVTIKEINPEKKEITIETTSEEAKEKLKKAAKEMGIKIKIKSAGGSA [r15_196_JUSTAS]	0.71 ± 0.27 kcal/mol	1.28 ± 0.33 kcal/mol	0.63 ± 0.39 kcal/mol
SAGGSAGGKKKTIVIKADSLEELKAALEALPEKVEVRLPNGETITLEVDGKKVEIKVISPEELKSAGGSAGG [r6_641_TrROS_Hall]	0.448 ± 0.039 kcal/mol	0.959 ± 0.048 kcal/mol	0.753 ± 0.14 kcal/mol
SAGGSAGGSAGVSPNEDVKVEVLEVKPDPETGTYTVLVKDPRTGEERTLTLTPEELAKLLSAGGSAGGSAGG [r11_894_JUSTAS]	4.42 ± 0.19 kcal/mol	4.53 ± 0.073 kcal/mol	4.56 ± 0.079 kcal/mol
SAGGKLPKGAKIVSVEFDKETKEIRIKVEFYDKNGKLIKTIEKTIKIKPKPKLSEEEKKKLEEEKKKSAGGS [r16_697_TrROS_Hall]	0.96 ± 0.18 kcal/mol	1.46 ± 0.28 kcal/mol	1.65 ± 0.23 kcal/mol
SAGGATVTVTEYPLPTGTLYRVTVTVGSKTTTFTVPPGVSLEEIKEIVEKEVGVDLTTVTTTTVSTAAASAG [r5_181_JUSTAS]	3.06 ± 0.14 kcal/mol	3.83 ± 0.062 kcal/mol	3.56 ± 0.14 kcal/mol
SAGGMTFETETITLEFPPEDEEEIRKRAEEIAEKLKKEYEKKGYKVEVEFSYDPETGVLTITIKFEKKSAGG [r13_755_JUSTAS]	3.57 ± 0.19 kcal/mol	4.19 ± 0.067 kcal/mol	3.99 ± 0.11 kcal/mol
MALPERLRELTPPVPPELALEAALKRAEELGLEEVREVRVLSVTPDGYIEVEIELPEGGSVRIRIPLEDLFS [r1_435_TrMRF]	1.51 ± 0.071 kcal/mol	0.608 ± 0.18 kcal/mol	1.15 ± 0.12 kcal/mol
SAGGSAGGSAGGSNIEIEYNPNMMTIRIEPGDKPIEIQIKSPMTMEEFIKTALDKFPGISAGGSAGGSAGGS [r4_191_TrROS]	0.394 ± 0.061 kcal/mol	0.224 ± 0.18 kcal/mol	0.415 ± 0.28 kcal/mol
SAGGKKIVIVAPPGMSPEELAELLKKLFPGLEVEVREVSAEELKKLKPGDEVLVIEVDGRLYAVKIKPSAGG [r13_649_TrROS_Hall]	2.05 ± 0.11 kcal/mol	3.67 ± 0.14 kcal/mol	3.21 ± 0.12 kcal/mol
SAGGSAMSEEALAEAERLVAERRAALEAAGVPVTVERVEVTVTVDTEVPTTNITVDLDVRLPDAPESAGGSA [r2_94_JUSTAS]	-0.0861 ± 0.034 kcal/mol	1.38 ± 0.024 kcal/mol	0.999 ± 0.027 kcal/mol
MKIVEITKIEKKEDGTITITIKIEPVKKGEKLKIRIIHDGKIYEAEIDAESGTITITLPKNVKELKIYIYPS [r1_428_TrROS_Hall]	3.21 ± 0.25 kcal/mol	3.46 ± 0.12 kcal/mol	3.44 ± 0.28 kcal/mol
SAGGSAGGSAGGSLPFLKAKFTFTVRATVTVTVTDDDGKTTTEEFELETTVTVTLEPKPSAGGSAGGSAGGS [r4_162_TrROS_Hall]	2.88 ± 0.15 kcal/mol	3.45 ± 0.07 kcal/mol	3.1 ± 0.2 kcal/mol
SAGGSAGGSAGGKFEIVEVKEEYTLPNGKKVKVFTVKNKDTGKEITFIVDSNGNLKPYPSAGGSAGGSAGGS [r10_1123_TrROS_Hall]	2.72 ± 0.13 kcal/mol	2.602 ± 0.025 kcal/mol	2.65 ± 0.11 kcal/mol
